Here are results for 6 sequences from US20240425885.

Assay in all cases: cleavage_in_vitro
For data set [1], the system named is T1, OMNI-107 (metagenomic, unknown).
T1 sequence: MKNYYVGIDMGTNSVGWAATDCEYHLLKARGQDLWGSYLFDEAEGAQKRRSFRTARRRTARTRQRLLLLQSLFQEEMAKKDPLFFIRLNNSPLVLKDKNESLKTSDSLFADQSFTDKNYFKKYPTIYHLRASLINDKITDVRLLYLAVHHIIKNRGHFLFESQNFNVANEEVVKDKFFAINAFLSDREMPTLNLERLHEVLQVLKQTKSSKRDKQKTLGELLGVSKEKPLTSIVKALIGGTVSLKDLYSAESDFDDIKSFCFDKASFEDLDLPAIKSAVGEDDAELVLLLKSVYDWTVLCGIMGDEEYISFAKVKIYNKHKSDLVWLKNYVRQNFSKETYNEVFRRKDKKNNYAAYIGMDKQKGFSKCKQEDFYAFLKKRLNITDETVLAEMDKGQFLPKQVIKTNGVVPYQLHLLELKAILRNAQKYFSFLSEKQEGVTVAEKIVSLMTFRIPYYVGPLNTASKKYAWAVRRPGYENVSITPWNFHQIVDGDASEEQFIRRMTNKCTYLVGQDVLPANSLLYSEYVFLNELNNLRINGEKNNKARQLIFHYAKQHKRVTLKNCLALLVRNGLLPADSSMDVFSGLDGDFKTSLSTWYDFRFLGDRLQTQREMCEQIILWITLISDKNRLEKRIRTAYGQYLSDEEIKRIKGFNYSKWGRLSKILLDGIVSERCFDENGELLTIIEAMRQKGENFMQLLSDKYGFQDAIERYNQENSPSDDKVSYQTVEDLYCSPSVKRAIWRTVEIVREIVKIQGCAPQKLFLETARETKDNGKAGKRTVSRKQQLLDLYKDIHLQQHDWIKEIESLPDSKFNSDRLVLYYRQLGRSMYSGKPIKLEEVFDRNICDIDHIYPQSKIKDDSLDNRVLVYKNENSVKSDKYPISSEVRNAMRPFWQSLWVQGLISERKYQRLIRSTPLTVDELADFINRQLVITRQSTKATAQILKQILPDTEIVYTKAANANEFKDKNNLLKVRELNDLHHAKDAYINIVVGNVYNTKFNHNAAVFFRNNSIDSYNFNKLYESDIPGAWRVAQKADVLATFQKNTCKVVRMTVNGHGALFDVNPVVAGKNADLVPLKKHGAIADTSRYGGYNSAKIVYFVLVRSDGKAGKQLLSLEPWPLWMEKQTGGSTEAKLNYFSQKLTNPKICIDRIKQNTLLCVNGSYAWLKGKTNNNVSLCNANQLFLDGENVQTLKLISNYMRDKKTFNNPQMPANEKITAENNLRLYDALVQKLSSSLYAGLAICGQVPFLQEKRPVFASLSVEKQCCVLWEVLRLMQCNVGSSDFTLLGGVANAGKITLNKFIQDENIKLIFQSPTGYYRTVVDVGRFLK
The conditions noted are these: TXTL; PAM NNNAANNN

Data set [2] has as its system T2, OMNI-118 (metagenomic, unknown).
T2 sequence: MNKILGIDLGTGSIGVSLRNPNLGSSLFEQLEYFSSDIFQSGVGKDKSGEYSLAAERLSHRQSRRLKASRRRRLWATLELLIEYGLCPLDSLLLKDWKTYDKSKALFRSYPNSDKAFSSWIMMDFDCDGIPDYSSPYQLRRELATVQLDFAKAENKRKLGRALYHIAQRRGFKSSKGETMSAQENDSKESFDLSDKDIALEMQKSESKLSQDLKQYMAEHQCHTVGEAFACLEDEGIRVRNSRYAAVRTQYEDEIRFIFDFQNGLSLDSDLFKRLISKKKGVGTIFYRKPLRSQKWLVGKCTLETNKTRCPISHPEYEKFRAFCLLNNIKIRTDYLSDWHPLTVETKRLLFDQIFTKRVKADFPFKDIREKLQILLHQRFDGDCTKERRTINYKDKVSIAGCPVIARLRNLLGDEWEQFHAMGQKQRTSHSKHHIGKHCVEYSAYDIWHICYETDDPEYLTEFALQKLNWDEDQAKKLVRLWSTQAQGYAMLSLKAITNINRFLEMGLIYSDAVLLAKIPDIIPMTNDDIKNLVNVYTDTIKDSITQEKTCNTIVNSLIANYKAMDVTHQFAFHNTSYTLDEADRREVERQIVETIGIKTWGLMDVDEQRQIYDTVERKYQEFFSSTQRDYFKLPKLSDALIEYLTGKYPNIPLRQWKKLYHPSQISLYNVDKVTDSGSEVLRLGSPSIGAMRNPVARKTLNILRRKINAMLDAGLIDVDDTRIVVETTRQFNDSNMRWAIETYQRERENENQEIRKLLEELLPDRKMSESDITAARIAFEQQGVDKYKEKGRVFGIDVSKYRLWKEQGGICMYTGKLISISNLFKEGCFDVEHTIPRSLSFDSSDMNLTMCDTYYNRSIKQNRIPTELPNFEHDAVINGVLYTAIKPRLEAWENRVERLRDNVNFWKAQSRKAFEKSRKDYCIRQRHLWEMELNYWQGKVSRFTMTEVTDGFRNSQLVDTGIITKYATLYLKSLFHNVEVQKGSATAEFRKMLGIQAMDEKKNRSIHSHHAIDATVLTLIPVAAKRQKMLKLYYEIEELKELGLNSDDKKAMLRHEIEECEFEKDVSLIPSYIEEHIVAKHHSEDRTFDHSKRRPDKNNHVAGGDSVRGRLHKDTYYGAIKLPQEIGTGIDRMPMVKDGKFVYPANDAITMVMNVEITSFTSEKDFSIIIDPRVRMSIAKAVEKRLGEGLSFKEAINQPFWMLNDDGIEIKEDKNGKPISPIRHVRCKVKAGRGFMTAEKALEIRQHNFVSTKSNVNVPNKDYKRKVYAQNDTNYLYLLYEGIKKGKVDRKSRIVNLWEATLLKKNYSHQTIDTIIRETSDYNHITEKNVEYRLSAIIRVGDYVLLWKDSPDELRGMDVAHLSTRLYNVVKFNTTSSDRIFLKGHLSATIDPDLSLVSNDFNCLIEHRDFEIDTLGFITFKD
To be noted: TXTL; PAM NNRTTHNN

Data set [3] relates to T3, OMNI-97 (metagenomic, unknown).
T3 sequence: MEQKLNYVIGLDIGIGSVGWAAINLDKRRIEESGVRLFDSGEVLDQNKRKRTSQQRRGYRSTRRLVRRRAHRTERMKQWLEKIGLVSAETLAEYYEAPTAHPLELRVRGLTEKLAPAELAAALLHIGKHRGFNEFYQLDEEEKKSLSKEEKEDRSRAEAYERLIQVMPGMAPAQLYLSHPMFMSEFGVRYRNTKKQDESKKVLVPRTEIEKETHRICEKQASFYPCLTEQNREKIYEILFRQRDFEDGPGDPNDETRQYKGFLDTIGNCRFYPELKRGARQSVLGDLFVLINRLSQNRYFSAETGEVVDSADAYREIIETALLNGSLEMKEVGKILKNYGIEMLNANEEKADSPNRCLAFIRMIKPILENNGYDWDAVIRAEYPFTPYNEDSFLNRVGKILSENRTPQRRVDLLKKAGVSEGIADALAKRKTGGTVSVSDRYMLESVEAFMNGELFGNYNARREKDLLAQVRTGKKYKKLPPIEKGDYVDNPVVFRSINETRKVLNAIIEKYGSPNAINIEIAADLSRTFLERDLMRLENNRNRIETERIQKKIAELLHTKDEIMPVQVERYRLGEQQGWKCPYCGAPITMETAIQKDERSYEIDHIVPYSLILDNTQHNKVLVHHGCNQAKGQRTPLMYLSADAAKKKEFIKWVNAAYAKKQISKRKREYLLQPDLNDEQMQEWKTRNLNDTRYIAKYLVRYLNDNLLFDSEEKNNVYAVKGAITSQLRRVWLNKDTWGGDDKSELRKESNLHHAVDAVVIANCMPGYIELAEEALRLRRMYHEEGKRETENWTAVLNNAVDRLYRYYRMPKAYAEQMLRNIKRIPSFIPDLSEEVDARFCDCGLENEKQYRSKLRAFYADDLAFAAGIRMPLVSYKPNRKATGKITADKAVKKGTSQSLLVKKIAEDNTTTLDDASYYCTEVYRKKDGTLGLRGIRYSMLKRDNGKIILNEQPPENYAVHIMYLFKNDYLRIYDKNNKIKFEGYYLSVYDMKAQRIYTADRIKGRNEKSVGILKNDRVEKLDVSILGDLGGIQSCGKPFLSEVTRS
To be noted: TXTL; PAM NNRCCANN

Sequence “GGAAGAGCAGAGCCUUGGUCUCGUUUGAGUAUGGUGUUAGAAAUAACACCAUUAGUUCAAAUAAGAUUUUUUCAAAUCGCCGAUUUUUCGGUAGUACACGAUGUGUACAUUGGAUCUGUUGCAAGACAGGUCCUUUUUUU / GGAAGAGCAGAGCCTTGGTCTCNNNNNNNN / NNNNNNNNGAGACCAAGGCTCTGCTCTTCC [T2 sgRNA 16 V1 ; T2 protospacer + 8N PAM library (pbPOS T2)]” showed an activity (1-depletion score) in data set [1] of 0.7.
In the case of “GGAAGAGCAGAGCCUUGGUCUCGUUGUGAUUUGCUCUCAAAUGAAAAUUUGUGAGACUUAUCACAACAAGGCUAUAAGCCGAAGUAUUAACUCCGCGAUUUUGUCGUGGAGUUUUUUU / GGAAGAGCAGAGCCTTGGTCTCNNNNNNNN / NNNNNNNNGAGACCAAGGCTCTGCTCTTCC [T2 sgRNA 21 V1 ; T2 protospacer + 8N PAM library (pbPOS T2)]”, the activity (1-depletion score) in data set [2] was 0.66.
Consider “GGAAGAGCAGAGCCUUGGUCUCGUUUGAGUAUGGUGUUAGAAAUAACACCAUUAGUUCAAAUAAGAUUUUUUCAAAUCGCCGAUUUUUCGGUAGUACACGAUGUGUACAUUUUUU / GGAAGAGCAGAGCCTTGGTCTCNNNNNNNN / NNNNNNNNGAGACCAAGGCTCTGCTCTTCC [T2 sgRNA 16 V3 ; T2 protospacer + 8N PAM library (pbPOS T2)]”, for which the activity (1-depletion score) in data set [1] is 0.83.
“GGAAGAGCAGAGCCUUGGUCUCGUUUUGGGCCUCUGAUGGGAAACCAUCAGAGACCUGAGAUAAGGCUUUAUGCCGUAGGGUAUGGCGGUAACCCGGAGUAUUCCGAAUCCGCUUUUUCUUUGCCUGUAAAUACAGUAUAACAUAUUAUUUCGUCCUUUUUU / GGAAGAGCAGAGCCTTGGTCTCNNNNNNNN / NNNNNNNNGAGACCAAGGCTCTGCTCTTCC [T2 sgRNA 8 V1 ; T2 protospacer + 8N PAM library (pbPOS T2)]” returned an activity (1-depletion score) in data set [3] of 0.93.
The sequence “GGAAGAGCAGAGCCUUGGUCUCGUUGUGAUUUGCUCUCAAAUGAAAAUUUGUGAGACUUAUCACAACAAGGCUAUAAGCCGAAGUAUUAACUCCGCGAUUAUGUCGUGGAGUUUUUUU / GGAAGAGCAGAGCCTTGGTCTCNNNNNNNN / NNNNNNNNGAGACCAAGGCTCTGCTCTTCC [T2 sgRNA 21 V2 ; T2 protospacer + 8N PAM library (pbPOS T2)]” showed an activity (1-depletion score) in data set [2] of 0.78.
In turn, “GGAAGAGCAGAGCCUUGGUCUCGUUUUGGGCCUCUGAUGGGAAACCAUCAGAGACCUGAGAUAAGGCUUUAUGCCGUAGGGUAUGGCGGUAACCCGGAGUAUUCCGAAUCCGCUUUUUUU / GGAAGAGCAGAGCCTTGGTCTCNNNNNNNN / NNNNNNNNGAGACCAAGGCTCTGCTCTTCC [T2 sgRNA 8 V3 ; T2 protospacer + 8N PAM library (pbPOS T2)]” had an activity (1-depletion score) in data set [3] of 0.97.
